Changes are numbered by the printed parent chain. Names and notes keep the numbering of the source.

This note sets out measurements from patent US20230203177A1 (Bristol-Myers Squibb, published 2023).

Assay [1] has as its target T1, soluble human CD40 extracellular domain (human, UniProt P25942 21-193).
T1 construct: Produced in house; also called hCD40; soluble hCD40 extracellular domain
The assay is described as follows: SPR, purified Ab on protein A, 6 concentrations of hCD40 ECD, mean of 3. The protocol:
(§1) Additionally, to more accurately define the dissociation rate (kd), a longer dissociation time of 360 seconds (s) was used as opposed to the shorter 180 s dissociation that had been used in the supernatant screening experiment.
(§2) CD40 binding SPR: SPR studies of the purified antibodies were conducted on BIAcore™ T200 instrument (GE Healthcare, Chicago Ill.). A Series S Protein A sensor chip (GE Healthcare, Chicago Ill.) was equilibrated with SPR running buffer of 10 mM NaPO₄, 130 mM NaCl, 0.05% tween 20, (PBS-T) pH 7.2 at 25° C. The purified antibody samples were diluted to 3 μg/ml in PBS-T and captured on the protein A surface for 30 s at 10 μl/min Binding of 3.91, 7.81, 15.6, 31.3, 62.5, and 125 nM human CD40 extracellular domain (produced in house) was evaluated using association time of 180 s at 30 μl/min, followed by a dissociation time of 360 s at 30 μl/min Regeneration between cycles was accomplished using two 15 s injections of 10 mM glycine pH 1.5. […] Data were analyzed using BIAcore™ T200 evaluation software by fitting to a 1:1 Langmuir model.
In general terms: SPR reads the build-up and loss of mass on a sensor chip optically.

Assay [2] addresses T1, soluble human CD40 extracellular domain. Description: SPR, purified Ab on protein A, 6 concentrations of hCD40 ECD, mean of 3; purified antibody, mean of three measurements. The protocol: as §1, §2
Assay [3] shares this target. The assay is described as follows: SPR, Ab captured from supernatant on protein A, hCD40 ECD analyte; antibody captured out of supernatant. As to the method: The titer data (Table 21) were used to normalize the antibody concentration in each supernatant to 3 μg/ml, and these antibodies were captured out of the supernatants on a protein A CMS Series S sensor chip (GE Healthcare), and tested for binding to two concentrations (5 nM and 50 nM) of soluble hCD40 extracellular domain.
(§3) CD40 binding SPR of antibody supernatants: Surface plasmon resonance (SPR) studies were conducted on a BIAcore™ T200 instrument (GE Healthcare, Chicago Ill.). A Series S Protein A sensor chip (GE Healthcare, Chicago Ill.) was equilibrated with SPR running buffer of 10 mM NaPO₄, 130 mM NaCl, 0.05% tween 20, (PBS-T) pH 7.2 at 25° C. The 96 antibody supernatants were normalized to a concentration of 3 μg/ml by diluting with PBS-T using a PerkinElmer JANUS® G3 system (PerkinElmer, Akron, Ohio). After priming the system, the 3 μg/ml antibody samples were captured on the protein A surface for 30 s at 10 μl/min Binding of 50 nM and 500 nM human CD40 extracellular domain (produced in house) was evaluated using association time of 180 s at 30 μl/min, followed by a dissociation time of 180 s at 30 μl/min Regeneration between cycles was accomplished using two 15 s injections of 10 mM glycine pH 1.5. […] Data were analyzed using BIAcore™ T200 evaluation software by fitting to a 1:1 Langmuir model.

Assay [4] shares this target. The assay is described as follows: SPR, purified Ab on protein A chip, soluble hCD40 ECD analyte, Fc2-1, n=3 global fit. The protocol: as §3, with “A” for “CD40 binding SPR of antibody supernatants: Surface plasmon resonance (SPR) studies were conducted on a BIAcore™ T200 instrument (GE Healthcare, Chicago Ill.). A”, “The 96 antibody supernatants were normalized to a concentration of 3 μg/ml by diluting with PBS-T using a PerkinElmer JANUS® G3 system (PerkinElmer, Akron, Ohio).” left out

Assay [5] shares this target. Description: SPR, purified Ab on protein A chip, soluble hCD40 ECD analyte, Fc4-1, n=3 global fit. As to the method: as §3, with “A” for “CD40 binding SPR of antibody supernatants: Surface plasmon resonance (SPR) studies were conducted on a BIAcore™ T200 instrument (GE Healthcare, Chicago Ill.). A”, “The 96 antibody supernatants were normalized to a concentration of 3 μg/ml by diluting with PBS-T using a PerkinElmer JANUS® G3 system (PerkinElmer, Akron, Ohio).” left out

For assay [6] the target is unchanged. Description: SPR, purified Ab on protein A chip, soluble hCD40 ECD analyte, Fc3-1, n=3 global fit.
The target in assay [7] is human CD40 on primary human tonsillar B cells (human, UniProt P25942 21-277). Description: cell-based or functional assay.
Sequence of human CD40 on primary human tonsillar B cells (P25942 21-277 limits assumed): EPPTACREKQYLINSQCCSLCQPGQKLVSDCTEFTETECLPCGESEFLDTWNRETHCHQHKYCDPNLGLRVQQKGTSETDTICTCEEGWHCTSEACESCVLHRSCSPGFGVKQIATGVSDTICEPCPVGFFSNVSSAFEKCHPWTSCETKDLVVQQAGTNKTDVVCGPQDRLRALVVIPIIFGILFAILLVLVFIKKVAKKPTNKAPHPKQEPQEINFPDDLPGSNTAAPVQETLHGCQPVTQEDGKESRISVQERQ
Assay [8] deals with T1, soluble human CD40 extracellular domain. The assay is described as follows: SPR, antibody captured from supernatant on protein A chip, soluble hCD40 ECD at 5 and 50 nM (summary table of the 16 chosen antibodies).
Assay [9] has the same target. The assay is described as follows: SPR, purified Ab on protein A, 6 concentrations of hCD40 ECD. The protocol:
as §1, §2

Assay [10] shares this target. The assay is described as follows: SPR, Ab captured from supernatant on protein A, hCD40 ECD analyte. The gist of the method: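 Soluble human CD40 extracellular domain flowed at 50/500 nM (or 5/50 nM) over antibody held on protein A at 3 μg/ml, with 180 s on- and off-phases. Run in PBS-T pH 7.2 at 25 °C; kinetics from 1:1 Langmuir model.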

T1 sequence (P25942 21-193 limits assumed): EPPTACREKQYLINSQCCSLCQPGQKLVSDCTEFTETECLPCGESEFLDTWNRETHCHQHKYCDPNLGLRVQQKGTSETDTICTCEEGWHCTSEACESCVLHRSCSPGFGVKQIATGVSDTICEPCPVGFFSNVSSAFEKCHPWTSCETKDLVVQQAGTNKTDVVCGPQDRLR

B1: BMS-986325 (antibody, human IgG1, kappa)
heavy: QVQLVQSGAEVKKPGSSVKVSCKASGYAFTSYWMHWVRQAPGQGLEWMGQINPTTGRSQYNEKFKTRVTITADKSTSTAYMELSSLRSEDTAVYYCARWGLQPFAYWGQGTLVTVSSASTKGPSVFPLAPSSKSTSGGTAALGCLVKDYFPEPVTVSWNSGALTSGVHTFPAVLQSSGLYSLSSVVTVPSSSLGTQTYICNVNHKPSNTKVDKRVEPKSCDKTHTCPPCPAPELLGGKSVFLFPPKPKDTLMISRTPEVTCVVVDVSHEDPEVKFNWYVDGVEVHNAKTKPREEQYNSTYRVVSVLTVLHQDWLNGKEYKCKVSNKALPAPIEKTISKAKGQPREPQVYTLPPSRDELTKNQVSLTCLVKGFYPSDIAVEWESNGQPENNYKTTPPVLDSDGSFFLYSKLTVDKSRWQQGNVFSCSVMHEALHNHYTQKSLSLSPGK
light: DIQMTQSPSFLSASVGDRVTITCKASQDVSTAVAWYQQKPGKAPKLLIYSASYRYTGVPSRFSGSGSGTDFTLTISSLQPEDFATYYCQQHYSTPWTFGGGTKVEIKRTVAAPSVFIFPPSDEQLKSGTASVVCLLNNFYPREAKVQWKVDNALQSGNSQESVTEQDSKDSTYSLSSTLTLSKADYEKHKVYACEVTHQGLSSPVTKSFNRGEC
notes: IgG1-P238K; purified lots and supernatant M1 treated as one molecule; also called M1 (wt); Y12XX-hz28
As for B1, in assay [1], the dissociation constant Kd (as a rule, the equilibrium constant for the complex coming apart) is 3.1 nM and the koff (as a rule, the rate constant with which the complex falls apart) stood at 0.00066 s⁻¹. Moreover, the kon (as a rule, the second-order rate constant of association) in [2] amounted to 220000 M⁻¹ s⁻¹. In assay [3], this molecule returned a Kd of 4.2 nM. In [4], the affinity, expressed as Kd, was 4.4 nM; the koff is 0.00087 s⁻¹; the kon turned out to be 200000 M⁻¹ s⁻¹. In assay [5], binding was put at a Kd of 4.4 nM, the koff worked out at 0.00091 s⁻¹ and the kon was 210000 M⁻¹ s⁻¹. For the same molecule, in [6], binding was put at a Kd of 4.5 nM, the koff worked out at 0.00091 s⁻¹ and the kon turned out to be 200000 M⁻¹ s⁻¹. For the same molecule, in assay [7], the “IC50, inhibition of tonsillar human B cell proliferation stimulated by IZ-hCD40L trimer (BMS-986325-WT P1-071223-1 lot 1)” value was 0.0012 µg/mL; the “IC50, inhibition of tonsillar human B cell proliferation stimulated by IZ-hCD40L trimer (BMS-986325-WT P1-071223-3 lot 3)” value came out at 0.0056 µg/mL; the “IC50, inhibition of tonsillar human B cell proliferation stimulated by IZ-hCD40L trimer (BMS-986325 P1-073346-1)” value was 0.0014 µg/mL; the “IC50, inhibition of tonsillar human B cell proliferation stimulated by hCD40L expressing CHO cells (BMS-986325-WT P1-071223-1 lot 1)” value was determined as 0.042 µg/mL. For the same molecule, in [7], the “IC50, inhibition of tonsillar human B cell proliferation stimulated by hCD40L expressing CHO cells (BMS-986325-WT P1-071223-3 lot 3)” value is 0.0314 µg/mL and the “IC50, inhibition of tonsillar human B cell proliferation stimulated by hCD40L expressing CHO cells (BMS-986325 P1-073346-1)” value was 0.047 µg/mL.

B2: M81 (HC-wt / LC-K107Q,R108Q) (antibody, human IgG1, kappa)
heavy: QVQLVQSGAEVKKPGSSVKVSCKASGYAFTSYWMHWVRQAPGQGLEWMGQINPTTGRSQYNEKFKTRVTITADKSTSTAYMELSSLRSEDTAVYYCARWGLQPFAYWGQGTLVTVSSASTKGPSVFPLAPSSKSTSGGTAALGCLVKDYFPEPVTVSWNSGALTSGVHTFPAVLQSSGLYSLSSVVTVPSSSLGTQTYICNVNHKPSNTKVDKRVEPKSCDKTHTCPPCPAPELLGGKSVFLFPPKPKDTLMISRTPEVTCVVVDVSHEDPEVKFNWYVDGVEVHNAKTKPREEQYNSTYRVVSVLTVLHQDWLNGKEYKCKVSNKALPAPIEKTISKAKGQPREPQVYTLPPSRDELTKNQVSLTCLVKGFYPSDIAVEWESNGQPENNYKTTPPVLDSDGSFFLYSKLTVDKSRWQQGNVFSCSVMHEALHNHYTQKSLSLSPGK
light: B1 light with K107Q, R108Q
notes: IgG1-P238K; also called HC1/LC6
B2 displayed a Kd in [8] of 4.1 nM. Further, in assay [9], the Kd came out at 3 nM, the koff was 0.0007 s⁻¹ and the kon is 240000 M⁻¹ s⁻¹. The Kd in assay [10] came to 4.1 nM. In [7], the “IC50, inhibition of tonsillar human B cell proliferation stimulated by IZ-hCD40L trimer” value worked out at 0.0007 µg/mL and the “IC50, inhibition of tonsillar human B cell proliferation stimulated by hCD40L expressing CHO cells” value came out at 0.0257 µg/mL.
